The results in this text go back to patent US20190048085A1 (CELL MEDICA SWITZERLAND, published 2019).

The target of test [1] is monkey PD-L1 Fc fusion (monkey (Rhesus macaque, Macaca mulatta)) (UniProt F6PJN1). The experiment in a line: KinExA, room temperature, two curves (50 pM and 10 pM scFv). (In general: Kinetic exclusion samples the free partner from a solution-phase mixture.)
Test [2] has the same target. The experiment in a line: KinExA, ratio of KD values.
Test [3] concerns the target T1, recombinant human PD-L1 Fc fusion (human, UniProt Q9NZQ7 19-239).
T1 construct: Bought Fc fusion (RnD Systems 156-B7); also called rhPD-L1 Fc fusion; not shown: Fc part of the bought fusion
Kind of test: ELISA on immobilized recombinant human PD-L1-Fc (2 µg/mL), detection with Protein L-HRP, A450 nm. The procedure:
After, blocking with 5% non-fat dry milk, increasing concentrations of scFv was added and detected by Protein L-HRP (Sigma-Aldrich).
Background: In an ELISA, binding on a coated surface is turned into a signal by an enzyme label.

T1 sequence (Q9NZQ7 19-239 limits assumed): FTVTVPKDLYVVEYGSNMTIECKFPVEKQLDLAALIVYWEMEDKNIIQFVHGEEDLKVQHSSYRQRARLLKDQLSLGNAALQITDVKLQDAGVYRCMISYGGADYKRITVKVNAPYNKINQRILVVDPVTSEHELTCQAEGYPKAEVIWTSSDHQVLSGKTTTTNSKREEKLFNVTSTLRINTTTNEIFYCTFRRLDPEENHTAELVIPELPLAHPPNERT

B1: anti-PD-L1 scFv (scFv)
scFv: EIVMTQSPSTLSASVGDRVIITCQASEDIYSLLAWYQQKPGKAPKLLIYDASDLASGVPSRFSGSGSGAEFTLTISSLQPDDFATYYCQGNYGSSSSSSYGAVFGQGTKLTVLGGGGGSGGGGSGGGGSGGGGSEVQLVESGGGLVQPGGSLRLSCTVSGIDLSSYTMGWVRQAPGKGLEWVGIISSGGRTYYASWAKGRFTISRDTSKNTVYLQMNSLRAEDTAVYYCARGRYTGYPYYFALWGQGTLVTVSS
notes: Humanized scFv with rabbit CDRs, VL-linker-VH; also called scFv1; scFv control
As for B1, the Kd (as a rule, the equilibrium constant for the complex coming apart) in test [1] was 3.3 pM. Further, in test [2], the fold tighter affinity than binding to human PD-L1 amounted to 2.7 fold. Further, in test [3], the EC50 (read off the curve) (in general, the concentration at which the effect is half-maximal) is roughly 8 ng/mL.
